Test results reported in PMC10032657.

Molecular target: anti-CD52 IgG1-RGY (alemtuzumab with E345R, E430G and S440Y)
Assay: native MS; anti-CD52 IgG1-RGY at a total IgG1 concentration of 2 µM, no peptide; 150 mM ammonium acetate pH 7.5; monomer and hexamer in solution

stoichiometry N: 6
B1: anti-CD52 IgG1-RGY (alemtuzumab with E345R, E430G and S440Y) (antibody, V domains shown)
VH: QVQLQESGPGLVRPSQTLSLTCTVSGFTFTDFYMNWVRQPPGRGLEWIGFIRDKAKGYTTEYNPSVKGRVTMLVDTSKNQFSLRLSSVTAADTAVYYCAREGHTAAPFDYWGQGSLVTVSS
VL: DIQMTQSPSSLSASVGDRVTITCKASQNIDKYLNWYQQKPGKAPKLLIYNTNNLQTGVPSRFSGSGSGTDFTFTISSLQPEDIATYYCLQHISRPRTFGQGTKVEIK
